Assay results reported in the supplement of paper PMC12042874.
± gives the uncertainty stated by the source.

Test: amyloid nucleation score (Sup35N fusion, yeast selection) (log enrichment); library NNK2; higher = more nucleation; inactive = no reads after selection
How it was run: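 Yeast lacking psi expressed peptides of 20 random codons fused to Sup35N, received 100 μM copper sulfate for 24 hours, and were then grown for 7 days at 30°C on medium lacking adenine and uracil. Illumina sequencing of input and output plasmid inserts provided the reads. Nucleation scores are DiMSum log enrichments of output over input, centred on the mode of non-aggregating sequences. Any sequence with under 100 input reads was excluded.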

Substance | amyloid nucleation score
NCLVISFKLWHNLMTVGYGD | 3.66 ± 0.079
MPQSYFLGSRIKRFKKSRLV | 0.496 ± 0.37
KGRYSGEGEIAFLQRVVGSG | 0.434 ± 0.41
MFYLCLRVVFRLKSWDFCDK | -0.271 ± 0.34
MFGGQELCACLDKEGRTESG | 5.09 ± 0.08
NILLMYFSLK | 5.74 ± 0.049
SKHFIVTVLTAITSNVSFSM | 2.38 ± 0.066
HYAVTYLLGYSVGRVLYLWK | -0.509 ± 0.79
RMMVGALAGFMV | 0.578 ± 0.35
FKFYSRSAYSHHRFSIYCDR | -1.22 ± 1.1
VFTCGVVPYPYKNTLKYKCF | -0.319 ± 0.4
DRFMVMFMLKVGVIVWNYGD | 0.262 ± 0.54
AARVIGWAFVDWFCLSKG | inactive
KFWDLC | 0.047 ± 0.45
WLWIKLEPLICSNFCWVVLW | 0.537 ± 0.48
FSPHHEPTSRG | 0.426 ± 0.45
STVMWLRASLRIQNYTRGDT | 4.54 ± 0.052
EENGCS | 1.22 ± 0.24
PTGPNSGNCIVLCPSDKSHE | -0.363 ± 1.1
WDNDQHIQRNLY | inactive
CISTLIGTRPTAYLLLLRDI | inactive
HLLHVSGLDEIEMWTGDF | -0.332 ± 0.39
VDCWMSISCQDYDSKFKVKS | 0.242 ± 0.77
IICTSSPQLIVYTSVRS | 7.08 ± 0.042
NWSVTGCQLRGGRTEGNGIR | 0.122 ± 0.5
WYKKATNSVLANVGQDFVVK | -0.41 ± 0.36

Substance | amyloid nucleation score
VIWIRTIKMHACTYVQQDVL | 0.806 ± 0.45
VFVEVDVTGFNFRLE | -1.18 ± 0.48
YSKAAIFMESHFLASGNHKA | 4.67 ± 0.1
SYGNEFMM | 0.363 ± 0.57
RTSHSLRWMVRPYRRADPMR | 0.691 ± 0.54
GGKTYNSTVVDVCDHAFCDY | -0.924 ± 1.1
IDDARRYCRQNRFTVSMGNC | -0.112 ± 0.54
FLMFQNGCFLNDILVLRNAR | -0.472 ± 0.26
PVNRQNFFSCD | -1.67 ± 0.62
KYVGWQYLSSCILGVFPLAG | 0.151 ± 0.32
VFGSVADMHM | inactive
STLHQSIKTGDIFFDSGTFV | -0.889 ± 0.49
WSMFLLRMAPMRMLTTINFV | -0.504 ± 0.33
RVSTVFSLKTRRCEFLFQCV | 0.24 ± 0.35
RIRRVSERMSVFRTLHRTMW | 5.01 ± 0.079
CWVRISDLCLYKFVGVPMSV | 0.312 ± 0.8
RRWVG | 0.015 ± 0.45
DYTSCEDVLSVVRPWNYNVE | 0.714 ± 0.47
NFCLARRYTYIKSPFCVSGK | 0 ± 0.56
VPSHRPFVYHRKDLGFLGSV | 0.269 ± 0.6
NQLRVLMTIFWPGMLNTPAV | 0.622 ± 0.31
LNFKWANCVFVDSNCQQ | 3.13 ± 0.17
SACIIVN | -0.012 ± 1.1
SRLISTHTAT | inactive
IFNDVIFNLRFC | 7.443 ± 0.054
CLGGNHYHPSSTVTEQRYLT | 0.859 ± 0.48

Substance | amyloid nucleation score
LHMCHWDSYSE | 1.36 ± 0.35
TSLVLCYLTIELSVLISSGN | 0.221 ± 0.36
VVSSGLHHRLLLCRIEGA | 0.526 ± 0.26
CFFLTHCRDIRNVSTV | -0.234 ± 0.37
CNRQAAMKAPSETCDVVACF | 4.52 ± 0.083
CSRKDYSYRVMKFVFCIYGL | 6.45 ± 0.061
ASHLWDGRSAWHTVLSLPVT | 1.08 ± 0.18
SYHNVG | -0.974 ± 0.61
IVDKVGHRVYEFVIYLTEDG | inactive
HHFTFQAAYFRNIPLESADE | 0.906 ± 0.23
FRVWSFFLNF | 3.12 ± 0.1
KFRCHGR | 0.785 ± 0.62
LYSVGVR | -0.387 ± 1.1
IFWTELCNPKFSFC | 9.439 ± 0.023
DDSTFKSRFVLGIPAICLGS | -1.37 ± 0.4
TNSSRISLNLGVLRGAQKDS | -1.08 ± 0.45
LFDGARINTVNECVYWNS | inactive
HLLRKDVPQAWT | 3.29 ± 0.11
YFNNPLFVEDFWLSYVSMSY | -0.749 ± 0.32
VRFYVCLFLRNEMKVGRMTW | 3.86 ± 0.064
RTFVVNQVEWDVYIWRSGSV | 0.004 ± 0.56
HPHIFDLVVIYCQNGHV | 6.92 ± 0.075
KRKFRMWSQNIFLKVGNILA | -1.47 ± 0.55
SPLYLTLCMTLQVYGSR | 4.04 ± 0.073
STMAGTLW | 0.051 ± 0.4
IDDVEGPVAPFGIATVQDQP | 1.51 ± 0.46

Substance | amyloid nucleation score
EAFNTSCLVFLRNDWYWSGF | inactive
GKYCYPL | -0.81 ± 0.32
CFSLRVENSVRRTTTHPCLD | 3.87 ± 0.075
MSYQSINKKGFVVFGRKLLA | -0.512 ± 0.39
PVIRRLEFGWQNASYG | -0.564 ± 0.76
SIAGVIMVDSSSLSM | -1.01 ± 0.78
RECIYFRFYSRWATLSFLNR | -0.368 ± 1
DGINLDICCCNTDKLNIDRI | inactive
LRNRMAERDLYLYAICSAGL | 0.331 ± 0.55
SCLVVLHIIAVISMVFSSIL | inactive
YVSECVANA | inactive
MCDLDDRKTTLSPWLRSSLG | 1.14 ± 0.35
LRGRRRTVLPANGWCSLTAL | 0.453 ± 0.28
SFTCALRLGVRGHWLIVTSF | 0.276 ± 1
LTILFH | 4.84 ± 0.078
CRYPFTPACTYMNLG | -0.114 ± 1
RNFMVDRSGWQSKYVTHSLE | -0.324 ± 0.6
GVRLDFYGNHFLWPAVSRGR | 3.63 ± 0.099
GSYDLEGGLLHGLTTTSYNR | -0.235 ± 0.55
YFRNDNGLWEINSCRILFIV | inactive
STDWNLRPGPSLRWLLSPAT | 0.92 ± 0.45
VHRLC | 1.38 ± 0.47
TIFWLTISCQRYRD | 1.46 ± 0.13
TESIFCSYSWVCVGVMSNYD | 5.1 ± 0.071
TIGEVYGYLRSWIYWGSEST | 0.154 ± 0.46
CGCCRTRGL | 2.94 ± 0.054

Substance | amyloid nucleation score
IVVKFCWCVGQSRYTGMSTN | 6.71 ± 0.052
AWRDTHWTASCRSGSRRILS | 4.59 ± 0.046
FYMMFMNLCFIYYCVLMEGY | inactive
SYSFRVVDWVYILTYLRKFE | 1.65 ± 0.33
YVVYMVFGR | 6.323 ± 0.055
NSRYPDRGILKLVV | 0.409 ± 0.65
RICVKLKVDSGVKMHQTTAG | 7.952 ± 0.034
FSSLRILTERENFHLVSGVH | -1 ± 0.78
GMMLPVFMIFIRRACINYSL | inactive
YRDVQNN | inactive
VHCCFGACGCSSWRLNLLAS | 0.092 ± 0.49
SWLYLPWLLLQARILHR | -0.197 ± 0.24
AKNVKKT | -0.575 ± 0.32
CVLSKEI | 0.387 ± 0.3
SVNSC | -0.654 ± 1
IHLRWPMKRLVYTYCFYFYS | -0.788 ± 0.76
GMRSCYWCEPSYCWASA | 2.9 ± 0.066
IREPSCWFLFFIKINAGDAV | inactive
YFIRRKIRMGGHLLTWSWWI | -0.104 ± 0.49
IYVECWRHRLILCIHA | 0.214 ± 0.49
GNSISFVYQSLICFNCDLSV | 7.453 ± 0.024
SCNQDYTDSLSRAELKVDSS | -1.07 ± 0.62
